Experimental data as given in the DeepSol protein solubility set.

test: soluble on expression in E. coli; label from the status in PepcDB or PDB records

Row | Sequence | soluble on expression in E. coli
1 | MPRPKILKRATVQPSAAVPVKKSTPEKEGSRQKKTNGKENASRNLQSNLEEDLEQLGFEDETVSMAQSAIENYFMQGKSASERMNNAKSRRGRRAGNGNTEEIEEDDEISNAITDFTKCDLPGLRNYITKKDNTEFEKRLEHLADNDFGKWKLYLAAGFNILLHGVGSKRDVLTEFENELSDYTYMRVDARKDGLNVKVLLGAINENMKLNCNVKRGQSTISWARSIRRKMNSQQLILIIDNIEAPDWRSDQEAFCELLENRDSVKLIATVDHIYSTFIWNSRQLSSLSFVHITINTFEIPLQELMTGDSRLLGLDARSNQSSHTMSSLDVFWKSLAVNSQKLFRLFFQMYFDTKKPVKFWDLFNAAKDDFIASTDAALRTQLVEFKDHRVLKWTRGDDGNDQLSGIVELRLVTEFLESKNMPLDEKKDE | not soluble
2 | MPRVSASPRTPPPPVMDLRMSEDSAFPIDFSALTRAQLENITRVCHGSAGSVFQQAGLFTSAGLPIVNNVRLKLAQRDADAFTTFEELINLFEDFYGRLALIEDTQNNLLLSALSAGDEPGETLQ | not soluble
3 | MPSENSRPMPSFPRRRESRPWDNGNIQRLSESPRFWIPTFVGMTGCRFVGMTWCRFPYGWIRHSRAGGNLERKI | not soluble
4 | MPSMSPIDKSWSTCPYGFLDGTHQELRRIFHLWRCKKYRSQFTEEKKATYEEKLAASELFKDKKALYPSSVSQPFKGDYVEITKNPKYQKLNSLVEDKVLLADVVSKINRANGKGTPRIFLLTKKCLVLADQKTGQVKASVPLPDLSSVFVSTQNDGFFALKLREGATSAAKGDYLLSSDRLIEIITKLYCTGAASAERNQIKIDISDEFLVQFKQDKVCVKFIQGTPKNSNSVSCKRKNNRLLEVSVPSP | soluble
5 | MPSNDIQGLELPQSYFNAAAKRQKYAMKPGLSALEKNAVIKAAYRQIFERDITKAYSQSISYLESQVRNGDISMKEFVRRLAKSPLYRKQFFEPFINSRALELAFRHILGRGPSSREEVQKYFSIVSSGGLPALVDALVDSQEYADYFGEETVPYLRGLGVEALEHHHHHH | soluble
6 | MPSPSGGWGCGGTWARGVDGARLFSIHHQAVRPNLSTISPPKEPPMIEVRHLCKSFARKPAVQDISFSIPAGEIVGYLGPNGAGKSTTIKVLTGLLVPDSGEVRVGGLVPWKQRRQHVARLGAVFGQRTTLWWDLPVRESLELLRHVYRVPAARFAENLAGFTELLELGPFLNTPARALSLGQRMRADLAAALLHDPELLFLDEPTVGLDVVAKERIREFVKAVNAERGVTVLLTTHDLGDVERLARRVMMIDTGRLLFDGPLAELQARYGGERELWVEFEKAPAQPALPGLTLLGQDGPRVRYGFSGAAAAPIAQVTALAPVRDLAVKEPEVEATIRRIYEGNLLGSRSVREGLEHHHHHH | not soluble
7 | MPSRLHSAVMSGTRDGDLNAAIRTALGKVIDPELRRPITELGMVKSIDTGPDGSVHVEIYLTIAGCPKKSEITERVTRAVADVPGTSAVRVSLDVMSDEQRTELRKQLRGDTREPVIPFAQPDSLTRVYAVASGKGGVGKSTVTVNLAAAMAVRGLSIGVLDADIHGHSIPRMMGTTDRPTQVESMILPPIAHQVKVISIAQFTQGNTPVVWRGPMLHRALQQFLADVYWGDLDVLLLDLPPGTGDVAISVAQLIPNAELLVVTTPQLAAAEVAERAGSIALQTRQRIVGVVENMSGLTLPDGTTMQVFGEGGGRLVAERLSRAVGADVPLLGQIPLDPALVAAGDSGVPLVLSSPDSAIGKELHSIADGLSTRRRGLAGMSLGLDPTRR | not soluble
8 | MPSRVPKSIFYNQVGYLISGDKRFWIQAHEPQPFALRTPEGQAVFAGMTKPVGGNWYVGDFTALRVPGTYTLTVGTLEARVVIHRRAYRDVLEAMLRFFDYQLCGVVLPEDEAGPWAHGACHTSDAKVFGTERALACPGGWHDAGDYGKYTVPAAKAVADLLLAHEYFPAALAHVRPMRSVHRAPHLPPALEVAREEIAWLLTMQDPATGGVYHKVTTPSFPPLDTRPEDDDAPLVLSPISYAATATFCAAMAHAALVYRPFDPALSSCCADAARRAYAWLGAHEMQPFHNPDGILTGEYGDAELRDELLWASCALLRMTGDSAWARVCEPLLDLDLPWELGWADVALYGVMDYLRTPRAAVSDDVRNKVKSRLLRELDALAAMAESHPFGIPMRDDDFIWGSNMVLLNRAMAFLLAEGVGVLHPAAHTVAQRAADYLFGANPLGQCYVTGFGQRPVRHPHHRPSVADDVDHPVPGMVVGGPNRHLQDEIARAQLAGRPAMEAYIDHQDSYSTNEVAVYWNSPAVFVIAALLEARGR | soluble
9 | MPSSSNSAAFSLDEFAKALDKHDYHAEKGQTVHGKICQHANEGVYVDFGGKSPGFVPVQELGLRPHAEIEDSFPLDSAWDFLVTSEQNDEGQVRLSRRQLQIQQSWENLAELEESGKTLEMVVTGTNKGGVVGDVEGLRGFIPRSHLMHKDNMDALVGQVLKAHILEANQDNNKLVLTQRRIQQAESMGKIAAGNIYEGKVAKIQPYGVFVEIEGVTGLLHVSQVSGTRVDSLNTLFAFGQAISVYVQEIDEYKNRISLSTRILETYPGELVEKFDEMMADAPNRLPLVQSKQNLGDKQEQLEKSLEHHHHHH | not soluble
10 | MPSYKLTYFAVRGLAEPARLLFHLAGVPFEDERLTFGDGSWEKLKDKTPMGQMPVLNVDGFEIPQSAAITRYLARKFGFAGKTPEEEAWVDAVVDQFKDFFGEFRKLIIAQRAGKSVEEIEKLTKEVINPAVSSFFKILNGLLEKSKSGYLIGDSITFADLFIAEDMQSLKNFGFLNATEQPKIAAHLEKVYSHPKLKSYIASRPVTEI | not soluble
11 | MPSYKLTYFNVRGYGEPARILFHLADVPFEDFRMTIGDGTWENLKAKTPFGQAPVLSVDGFEIPQSAAINRYLAKQFGYAGKTPEEQAWTDAIVDQYKDFMVSIKEVGKASAAGKSAEEVGKIIQSDLVPARDAFFVIINKILEKSKSGFLVGDGLTIADIVIVECITTLDKHQLFTASEQPKLVALREKVYAIPAIKKWVEIRPDTLN | not soluble
12 | MPTFSLWLPAGSNNVHPCGDPYAHHLFMRCLYHAKHDPTMKFDVKTTNVNKTSQEFKNTGLRRMPGISAEESGETQTFETEDDILDFLEYLKPERGDDEEAENATCDLFRQFARFVKDVEHRDTAFNTELLRLDKYLSEQETKFLISDDVTHIDCLVLTRLHSIRVAAKMLKNYEIPADLSHVLDYLKAGYATEMFRVSCPSDQEIVLHWTELKDTPRLSAKDRAKLVREEPVFSFSV | not soluble
13 | MPTFTTHRQIAHSAREMFDLVADIECYPEFLPMCEALIVRSRKKCEEKTLLLADMTVGYKLVRETFTTQVFLQPKEKRIEVKYIDGPFKYLENRWAFHHTEKSNICNIEFFIDYEFKSKMLGLVMGSMFDIAFHKFTDAFERRAHRIYGSPVI | soluble
14 | MPTLSSNLKHLRLLLGRSQGEFAEQLGIAQSTLSSVERENRPPSTKLINTARFQTGVSAEYFEASIHFYAAPDLLFRSAREGRANADKIAAAFSIAEHYLRERYPDVTSDLPTIPIADLEGELSLRMLEEFASQTRDHFGIDQDSMIPNLTTVLNNHGILVTSLPDYVVEGTNFDGVSTPTDSTLRIIALNQQRSGDRYRFSLAHELAHLILHANTLRSDKSQMEKEANIFAASFLMPRALLTPVITPELTLKDYAELKAQWGYSIQAIVRRAHELELIDYKRYRSLRMQIAGRGWNINEPVDVLLENVYIDPIDLLSNNIKKHQSTNEGLATVTSLHKQ | not soluble
15 | MPTNQDLQLAAHLRSQVTTLTRRLRREAQADPVQFSQLVVLGAIDRLGGDVTPSELAAAERMRSSNLAALLRELERGGLIVRHADPQDGRRTRVSLSSEGRRNLYGNRAKREEWLVRAMHACLDESERALLAAAGPLLTRLAQFEEP | soluble
16 | MPTTQINIVLAEPRCMAGEFFNAKVLLDSSDPDTVVHSFCAEIKGIGRTGWVNIHTDKIFETEKTYIDTQVQLCDSGTCLPVGKHQFPVQIRIPLNCPSSYESQFGSIRYQMKVELRASTDQASCSEVFPLVILTRSFFDDVPLNAMSPIDFKDEVDFTCCTLPFGCVSLNMSLTRTAFRIGESIEAVVTINNRTRKGLKEVALQLIMKTQFEARSRYEHVNEKKLAEQLIEMVPLGAVKSRCRMEFEKCLLRIPDAAPPTQNYNRGAGESSIIAIHYVLKLTALPGNGVLY | not soluble
17 | MPTVPFPILRLPNAILQRSLQQMSPIGLISLSVLSNNMKQIVTMPNNKSRFDGRISTTLPITLHLNVDRNSRHHYVEYAFQFNQSVLRIQDIRGQEPATLTKPGFTDKLWIEHVAEVLFQNKGVILSCDAPFRTYIKELLKNINVTLIAIRSSGFEVWKFFELFPSLEKVTFTEGPIPLSVLSRNLDGLKVNTKDVPLDDALTSNSLSFAMHRNSFTMKEINLFIKQWIRGCNPRLEMFQILFNDIERHLVLENVIFKGINYIEKRNRIVQCQEREEYRIERFDGTEALVWFNPNRFPFLEMTVMMNDDDDKLLV | not soluble
18 | MPVGTAEGIYKRRAIGGTGRPECLPYHFHEMQGALAHRGALDYSALPVQGASWSDLDPLEFERFRRFIRESRGQGDKSLLDLPDVELAKALGAVKANHEVRTVRVLGLLLFGKEEALQRFIPTHEVAFQVLRGTRVEVNDFFRWPLLRTMEELLTRFRAWNHEEEVSFGLMRIGVPNYSERAFREGLANALIHRDYTRLGAVHVQWHEDRIEISNPGGFPEGIHLGNLLVAPPRPRNPLLADAFKRAGVVERTGRGIDIIFEEQLRNGRPAPSYEQSTPESVVLVLPGGEANLNFVRLIVEEGQARRPLRLDELLVLNGLWQERQLTTKEAARLIQKTEATARAVLERLVETGLIEARGTGRGRTYHLSASTYRRLGEEAAYVRLKGFEHQQMEQMVLEYVRAHGRITRREAAELCRIGPYQATRLLKRMVEQGKLTPHGVGKGTWYALRS | soluble
19 | MPVHSRGDKKETNHHDEMEVDYAENEGSSSEDEDTESSSVSEDGDSSEMDDEDCERRRMECLDEMSNLEKQFTDLKDQLYKERLSQVDAKLQEVIAGKAPEYLEPLATLQENMQIRTKVAGIYRELCLESVKNKYECEIQASRQHCESEKLLLYDTVQSELEEKIRRLEEDRHSIDITSELWNDELQSRKKRKDPFSPDKKKPVVVSGPYIVYMLQDLDILEDWTTIRKAMATLGPHRVKTEPPVKLEKHLHSARSEEGRLYYDGEWYIRGQTICIDKKDECPTSAVITTINHDEVWFKRPDGSKSKLYISQLQKGKYSIKHS | soluble
20 | MPYKNILTLISVNNDNFENYFRKIFLDVRSSGSKKTTINVFTEIQYQELVTLIREALLENIDIGYELFLWKKNEVDIFLKNLEKSEVDGLLVYCDDENKVFMSKIVDNLPTAIKRNLIKDFCRKLS | soluble
21 | MQAAKVDTLSVHSDAMNKEVQVITICPDKAMAGEKCPVLYLLHGYGGNAGTWLGIKPELPRIADKEGIIFVCPDGKNSWYWDSPLNKEYRYETFVSKELVNYIDKNFTTKAERGGRAVTGLSMGGHGSLWLSIRHKDVFGGGGSMSGGLDIRPFPNNWEMKKQLGEEASNKQRWDEHTVINQLDKIKNGDLAVIIDCGCDDFFLEVNKAVHEKLLKKKINHDFIIRPGGHTGRYWNNAIDYQILFFSKFFNK | not soluble
22 | MQAEILLTLKLQQKLFADPRRISLLKHIALSGSISQGAKDAGISYKSAWDAINDMNQLSEHMLVERATGGKGGGGAVLTRYGQRLIQLYDLLGQIQQKAFDVLSDDDALPLDSLLAAISRFSLQTSARNQWFGTITARDRDLVQQHVDVLLADGKTRLKVALTAQSGERLGLEEGKEVLILLKAPWVGITRDAAVARAADNQLSGTISHIERGAEQCEVLMALPDGQTLCATIPTSDAATLKEGDDVIAWFNADRVIIATLC | not soluble
